Km data for one protein are collected here from paper PMC9129080, “Control of fruit softening and Ascorbic acid accumulation by manipulation of SlIMP3 in tomato” (Plant Biotechnology Journal, 2022).

As usually defined, the Km is the substrate concentration at which the rate is half of its maximum.

Substrate in data set [1]: O=P(O)(O)OC1O[C@@H](CO)[C@@H](O)[C@@H](O)[C@@H]1O
Briefly: phosphate release, malachite green. In kind it is biochemical, Solanum lycopersicum. As to conditions: 3.5 mM MgCl2, 50 mM Tris-Cl pH 7.0, 25 °C.

Substrate in data set [2]: O=P(O)(O)O[C@@H]1[C@@H](O)[C@H](O)[C@@H](O)[C@H](O)[C@@H]1O
Briefly: phosphate release, malachite green. In kind it is biochemical, Solanum lycopersicum. The note with it: 3.5 mM MgCl2, 50 mM Tris-Cl pH 7.0, 25 °C.

B1: SlIMP3 (Solanum lycopersicum) (protein)
chain: MAQNGSVEQFLDVAVEAAKKAGEIIREGFYKTKHVEHKGMVDLVTETDKACEDFIFNHLKQRFPSHKFIGEETTAACGNFELTDEPTWIVDPLDGTTNFVHGFPFVCVSIGLTIEKKPTVGVVYNPIIDELFTGIDGKGAFLNGKPIKVSSQSELVKALLATEAGTNRDKLVVDATTGRINSLLFKVRSLRMCGSCALNLCGVACGRLDLFYELEFGGPWDVAGGAVIVKEAGGFVFDPSGSEFDLTARRVAATNAHLKDAFIKALNE
notes: tag removal not mentioned
Turning to B1, the Km in data set [1] came out at 0.29 mM; in data set [2] it was 0.28 mM.
